B1: TPR t1 (parent)
chain: GACCAAUCUGCCCUCAGAGCUCGAGAACAUCUUCGGAUGCAGAGGAGGCAGGCUUCGGUGGCGCGAUAGCGCCAACGUCCUCAACCUCCAAUGCAUCCCACCACAUGAUGAUGCCUGAAGAGCCUUGGUUUUUUG

Variants of: B1
Assay: polymerase ribozyme fitness, log enrichment relative to wild type (log ratio); higher = more active; in vitro selection for triplet polymerase activity
Method in brief: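 The heterodimeric triplet polymerase ribozyme's subunits were each mutagenized into PCR-built libraries and transcribed. Every library was selected once, in triplicate, by annealing with a biotinylated primer, the partner subunit and triplets, incubating frozen at −7 °C, gel-excising extended constructs, capturing on streptavidin beads and running RT-PCR. Input and output libraries were Illumina-sequenced, with genotypes kept only at ≥10 input reads and ≥1 read per output. Fitness, from inverse-variance-weighted replicate averages, is the base-2 logarithm of genotype enrichment over wild-type enrichment.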

Variant	polymerase ribozyme fitness (log ratio)
G69A C82G	-3.32
G71A C101A G113U	-5.02
G71U G117A	-1.51
C70U A111G G120C	-4.93
C70U C114A G128U	-4.2
G69A C86A C99U G110C	-6.84
A66U C114A	-3.05
C70U G117C	-4.24
G69U U87A G127U U130A G135U	-2.93
G69U U78G C102U	-0.192
G69A G93A A95C A121U	-3.33
G71U U78C C98U A119U	-1.19
A68G G122A	-2.55
G69C U116C G120C	-0.894
C70A G113U	-2.82
C70A G113A	-2.41
C70U U78A A95U U112G	-2.17
C70U A74U C86A	-4.13
C70A C88U	-1.26
G71C U112C	-0.487
G71A G117A	-1.44

Variant	polymerase ribozyme fitness (log ratio)
C70U C85G U87A A111G G120A	-5.35
C70G G117C	-5.07
G71C G113A G128A	-3.16
G71C G117U	-3.08
G69U U126G	-0.571
G69A C123A	-1.81
G69A C123U	-0.983
G69A C123G	-0.288
C70G U78C C114U	-5.32
C70G U106A	-2.52
G69C C85A	-2.84
G69C C85U	-1.8
G71A C114U G127U	-5.52
G69C G77U U87A G117U	-5.49
G71A U133G	-0.389
A66U C98U	-1.9
U67C C85U	-4.67
A68C A84U U112G G117C	-7.28
C70U G122A U126A	-3.62
A66U C123A	0.285
C70U C76U U106C U133G	-1.64

Variant	polymerase ribozyme fitness (log ratio)
C70G A111G G135U	-4.58
G71A G127A	-2.33
G69U U87A C97A	-2.19
G71A A74G C88A C97A G117C	-5.77
G69U C85G C99U A100C G110A	-5.56
A66U U125A	-2.11
C70U C102A	-1.86
G71A C99U	-3.17
G71A C124U	1.42
G69U U81A	0.151
G69C G122U U130C	-1.15
A68G U125A	-3.61
G69A C79A	-3.99
G69U C89G	-0.225
C70A G71C	-4.68
C70G C73A	-4.66
G69C U106A G120U G128U	-2.78
A66U C94A	-2.12
A68U G117C	-6.92
A68C U116A A119U C124U	-7.83
G69U C88U	-0.366

Variant	polymerase ribozyme fitness (log ratio)
A68G U106A	-3.22
G69A G93U A111G G122A	-5.44
C70A U125A G128A	-3.04
C70U C88A C115U	-3.07
G71C C102U	-3.11
G69A C124A	-0.616
G69U C124A	1.92
G69U C124G	1.3
G69U U116A	-1.65
G69U U133A	-0.00372
G69U C70A	-1.51
G69U C70U	-0.561
A66U G93C C115U U116C	-5.96
C70A G128U	-3.9
G69A A74G	-5.42
G71U A100U	-1.2
G71U U96C	-0.38
G69C G120U	-0.245
G71A C86A A111C G113C	-5.65
C70A C124A	-0.104
C70A C124U	-0.369

From the RNAGym collection of RNA variant scans (doi:10.1073/pnas.2313332121)
